The values that follow come from US5521157A, “Modified polypeptide compound with VIP-like activity” (Sanwa Kagaku Kenkyusho Co., Ltd., priority 1993, dated 1996).

One series in a line: in vitro. The following applies: male, Hartley, guinea pig, pH 7.8.
Another series has as its target enkephalinase (Homo sapiens, UniProt P08473). As to conditions: incubated with enkephalinase, within 15 minutes; cited from earlier work.
The conditions of series [1]: broncho-alveolar lavage wash from guinea pig at 37° C.; cited from earlier work.
In series [2] the test system is histamine-induced bronchoconstriction. Kind of series: Duration of bronchoconstriction suppressing activity (Konzett-Rossler method). The series is classed as in vivo. The following applies: male guinea pig, drug dropped directly into the respiratory tract, 5 μg/kg histamine intravenously. How it is done: (Duration of bronchoconstriction suppressing activity)
The inhibitory activity of the VIP analog derivatives, obtained in the Production Examples above, on histamine-induced bronchoconstriction was evaluated on test samples in accordance with a Konzett-Rossler method. Natural type VIP was used as a control.
First, a male guinea pig was fixed under urethane-anesthesia. After cutting the neck of the animal, a canula drug line was inserted into its jugular vein while a canula connected to a Konzett-Rossler device was inserted into its respiratory tract. After dropping a test drug directly into the respiratory tract, the head of the animal was held up for 1 minute to allow the drug to reach the lungs. Subsequently, 5 μg/kg of histamine was intravenously administered to the animal and the bronchoconstriction was measured over time. One minute before the administration of histamine, succinylcholine chloride was intravenously administered to the animal to thereby suppress spontaneous respiration during the experiment. Evaluation was made in the following manner. Before the administration of the test drug, the intensity of bronchoconstriction induced by histamine was measured. Then, after the administration of the test drug, the time required for reducing by 50% the suppression of bronchoconstriction induced by the same dose of histamine as measured above was defined as t50. The t50 of each test drug was determined.

Series [3] can be described thus: Measurement of elution time in reversed phase HPLC (correlates to hydrophobicity). The series is classed as physicochemical. As to conditions: reversed phase C-18 column, 40° C., 0.012N hydrochloric acid with 15, 25 and 50% acetonitrile, 50 minutes, 0.8 ml/min. The procedure: (Measurement of elution time in reversed phase HPLC)
It is well known that the elution time in HPLC with the use of a reversed phase column correlates to the hydrophobicity of a compound (cf. J. Med. Chem., vol. 18, pp. 549-552 (1975) and J. Pharm. Sci., vol. 66, pp. 747-749 (1977)). Thus, the elution time of each of the VIP analog derivatives obtained in the above Reference Production Example and production Examples was measured under the HPLC conditions as specified below. As a control, natural VIP having a human type amino acid sequence (purchased from Peptide Institute, INC.) was employed.
Column: μ-BONDASPHERE C-18 column (manufactured by Millipore Corporation, 3.9 mm×150 mm)
Eluent: eluted with 0.012N hydrochloric containing 15, 25 and 50% of acetonitrile in this order, for 50 minutes
Detection wavelength: 210 nm

Square brackets hold non-standard residues; d marks the D form. Ends that are not written are not given here. Peptide text beside a SMILES is read from it. hSer = N[C@@H](CCO)C(=O)O

Chain of enkephalinase (P08473 whole entry, species assumed): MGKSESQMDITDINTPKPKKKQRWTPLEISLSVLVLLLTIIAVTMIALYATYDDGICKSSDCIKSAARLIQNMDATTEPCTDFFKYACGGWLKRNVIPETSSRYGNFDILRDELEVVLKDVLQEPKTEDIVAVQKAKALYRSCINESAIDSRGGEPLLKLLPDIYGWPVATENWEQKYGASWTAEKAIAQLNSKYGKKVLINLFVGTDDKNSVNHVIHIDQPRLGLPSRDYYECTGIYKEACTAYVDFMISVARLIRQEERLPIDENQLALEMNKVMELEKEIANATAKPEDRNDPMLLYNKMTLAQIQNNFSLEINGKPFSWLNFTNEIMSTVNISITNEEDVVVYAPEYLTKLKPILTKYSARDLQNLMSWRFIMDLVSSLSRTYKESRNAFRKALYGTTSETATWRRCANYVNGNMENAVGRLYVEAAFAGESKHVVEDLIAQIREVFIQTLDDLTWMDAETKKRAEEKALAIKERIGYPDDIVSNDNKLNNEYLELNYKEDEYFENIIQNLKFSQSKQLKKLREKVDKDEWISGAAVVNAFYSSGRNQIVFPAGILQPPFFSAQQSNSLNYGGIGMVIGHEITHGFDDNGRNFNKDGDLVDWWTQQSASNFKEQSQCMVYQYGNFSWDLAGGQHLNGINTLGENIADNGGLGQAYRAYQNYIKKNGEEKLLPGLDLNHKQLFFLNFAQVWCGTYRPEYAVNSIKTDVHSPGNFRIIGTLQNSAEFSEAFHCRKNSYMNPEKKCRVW
Procedure for in vitro: First, male Hartley guinea pigs (weight: 350-380 g) were anesthetized by intraperitoneally administering urethane. Next, the respiratory tract of each animal was exposed by cutting its neck and 4 ml of physiological saline was slowly injected into the respiratory tract. Then, the injected solution was recovered from the respiratory tract, which is referred to as the broncho-alveolar lavage wash.
1, 2, 3 and 4 hours after the initiation of the incubation, the reaction mixture was collected and the residual concentration of the (SEQ ID NO: 3)-n-hexylamide or the natural type VIP was measure under the following HPLC conditions to thereby determine the half-life thereof.
Column: μ-BONDASPHERE C-18 column (manufactured Waters Co., 3.9 mm×150 mm)
Eluent: eluted with 0.012N hydrochloric containing acetonitrile at a linear gradient concentration from 15 to 25%, for 20 min

In the case of `CCCCCCNC(=O)[C@H](CCO)NC(=O)[C@H](CCCCN)NC(=O)[C@H](CC(C)C)NC(=O)[C@H](C)NC(=O)[C@H](CCCCN)NC(=O)[C@H](CC(N)=O)NC(=O)[C@H](CC(C)C)NC(=O)[C@H](Cc1ccc(O)cc1)NC(=O)[C@H](CCCCN)NC(=O)[C@H](CCCCN)NC(=O)[C@H](C)NC(=O)[C@H](C)NC(=O)[C@H](CC(C)C)NC(=O)[C@H](CCC(N)=O)NC(=O)[C@H](CCCCN)NC(=O)[C@H](CCCNC(=N)N)NC(=O)[C@H](CC(C)C)NC(=O)[C@H](CCCCN)NC(=O)[C@@H](NC(=O)[C@H](Cc1ccc(O)cc1)NC(=O)[C@H](CC(N)=O)NC(=O)CNC(=O)[C@@H](NC(=O)[C@H](Cc1ccccc1)NC(=O)[C@@H](NC(=O)[C@H](C)NC(=O)[C@H](CC(=O)O)NC(=O)[C@H](CO)NC(=O)[C@@H](N)Cc1c[nH]cn1)C(C)C)[C@@H](C)O)[C@@H](C)O` [Production Example 2, VIP analog-n-hexylamide derivative] (HELM PEPTIDE1{H.S.D.A.V.F.T.G.N.Y.T.K.L.R.K.Q.L.A.A.K.K.Y.L.N.K.A.L.K.[O=C([C@H](CCO)N[*:1])[*:2]].[CCCCCCN[*:1]]}$$$$V2.0), the half-life at 330 μg/ml in the series “in vitro” (broncho-alveolar lavage wash) is 4.9 h.
In the case of `CC[C@H](C)[C@H](NC(=O)[C@H](CO)NC(=O)[C@H](CC(N)=O)NC(=O)[C@H](CC(C)C)NC(=O)[C@H](Cc1ccc(O)cc1)NC(=O)[C@H](CCCCN)NC(=O)[C@H](CCCCN)NC(=O)[C@@H](NC(=O)[C@H](C)NC(=O)[C@H](CCSC)NC(=O)[C@H](CCC(N)=O)NC(=O)[C@H](CCCCN)NC(=O)[C@H](CCCN=C(N)N)NC(=O)[C@H](CC(C)C)NC(=O)[C@H](CCCN=C(N)N)NC(=O)[C@@H](NC(=O)[C@H](Cc1ccc(O)cc1)NC(=O)[C@H](CC(N)=O)NC(=O)[C@H](CC(=O)O)NC(=O)[C@@H](NC(=O)[C@H](Cc1ccccc1)NC(=O)[C@@H](NC(=O)[C@H](C)NC(=O)[C@H](CC(=O)O)NC(=O)[C@H](CO)NC(=O)[C@@H](N)Cc1c[nH]cn1)C(C)C)[C@@H](C)O)[C@@H](C)O)C(C)C)C(=O)N[C@@H](CC(C)C)C(=O)N[C@@H](CC(N)=O)C(N)=O` [VIP, vasoactive intestinal polypeptide], the VIP degraded result on enkephalinase was “more than 70%”. Also, the half-life at 330 μg/ml in the series “in vitro” (cerebrospinal or other body fluid) is 1.2 h. Moreover, in series [1], the half-life result is listed as “about 1.5 hours”.
The compound “Reference Production Example: basic VIP analog of SEQ ID NO: 3 disclosed in JP-A-6-220090 / EP-A-0,613,904, starting material of the derivatives (HSDAVFTGNYTKLRKQLAAKKYLNKALK[hSer]; ends and bridges not checked) [reference compound]” returned a t50 in series [2] of 26 min. The Retention time in series [3] is 13.8 min.
Turning to “VIP analog-dihexylamide derivative (HSDAVFTGNYTKLRKQLAAKKYLNKALK[hSer]-dihexylamide) [Production Example 6]”, the Retention time in series [3] is reported as 41.4 min.
The same measure, in the same setting: next, “VIP analog-ethylenediaminemonoamide derivative (HSDAVFTGNYTKLRKQLAAKKYLNKALK[hSer]-{ethylenediamine monoamide}) [Production Example 8]”: 12.1 min.
Compound “VIP analog-laurylamide derivative (HSDAVFTGNYTKLRKQLAAKKYLNKALK[hSer]-laurylamide) [Production Example 3]” showed a t50 in series [2] of 61 min. The compound further gave a Retention time in series [3] of 40.0 min.
In series [3], “VIP analog-n-propylamide derivative (HSDAVFTGNYTKLRKQLAAKKYLNKALK[hSer]-{n‑propylamide}) [Production Example 1]” registered a Retention time of 18.0 min.
“VIP analog-oleylamide derivative (HSDAVFTGNYTKLRKQLAAKKYLNKALK[hSer]-oleylamide) [Production Example 5]” displayed a Retention time in series [3] of 48.3 min.
Same read-out and setting: next, “VIP analog-stearylamide derivative (HSDAVFTGNYTKLRKQLAAKKYLNKALK[hSer]-stearylamide) [Production Example 4]”: 46.8 min.
In series [2], “VIP analog-triethylenetetraminemonoamide derivative (HSDAVFTGNYTKLRKQLAAKKYLNKALK[hSer]-{triethylenetetramine monoamide}) [Production Example 7]” yielded a t50 of 58 min. Also, the Retention time in series [3] is on record as 10.9 min.

As a reminder, the half-life is how long it takes for the measured level to halve.
